Laboratory results taken from the supplement of paper PMC10065799, “High-throughput profiling of sequence recognition by tyrosine kinases and SH2 domains using bacterial peptide display” (eLife, 2023).

Target: Hck (UniProt P08631)
Assay: phosphorylation enrichment, bacterial display (enrichment ratio); higher = better substrate or ligand; peptides without Tyr show the background
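Note: 11-residue human phosphosite peptides and single-mutation variants displayed on the E. coli surface, counted by deep sequencing, each peptide's frequency after selection divided by its frequency in the unselected input library; frequency after pTyr selection over input frequency; kinase dosed for 20-30% of maximal phosphorylation in three min.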

Hck, sequence (P08631 whole entry, looked up): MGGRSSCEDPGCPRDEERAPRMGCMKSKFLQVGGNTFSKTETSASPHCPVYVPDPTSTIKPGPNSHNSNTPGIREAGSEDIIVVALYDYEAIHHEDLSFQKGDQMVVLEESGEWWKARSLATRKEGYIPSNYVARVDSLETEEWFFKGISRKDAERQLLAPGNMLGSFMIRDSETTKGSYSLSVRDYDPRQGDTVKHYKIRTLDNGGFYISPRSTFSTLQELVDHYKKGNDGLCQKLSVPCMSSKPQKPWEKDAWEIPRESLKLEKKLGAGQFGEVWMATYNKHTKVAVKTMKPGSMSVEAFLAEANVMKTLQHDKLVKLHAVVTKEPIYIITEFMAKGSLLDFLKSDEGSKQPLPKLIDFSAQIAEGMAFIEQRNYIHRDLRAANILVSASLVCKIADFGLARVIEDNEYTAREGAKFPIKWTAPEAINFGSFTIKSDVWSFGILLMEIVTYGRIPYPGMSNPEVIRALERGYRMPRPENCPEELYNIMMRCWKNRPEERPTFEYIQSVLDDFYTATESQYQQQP

Sequence | phosphorylation enrichment
SPFAVYRFFTF [RPGRIP1_Y826_YF] | 0.867
CTTIHYYYMCN [TP53_Y234_N235Y] | 0.804
TFTVSYLPDMS [FLNC_Y1602_YF] | 0.48
SYSGEYGGGGG [ZG16_Y30] | 0.525
GVIRHSVVCST [BTK_Y334_Y334S] | 0.436
MENFIYESMRF [CYP19A1_Y361_YF] | 7.67
PNRILYGDFQQ [MYH7_Y715_R719Q] | 1.42
VFLGAYDCFLP [SLC22A5_Y486_R488C_YF] | 3.27
SIKDKYVTALF [KCNH2_Y611_YF] | 0.498
IRKKFYRAILE [CHD7_Y1218_Q1214R_YF] | 0.455
ANQDDYISFRH [IMP4_Y226] | 1.19
MGSYNYLGFAR [SPTLC2_Y178] | 2.99
FFWDGYMPRQF [GSS_Y270_R267W_YF] | 0.471
LTDRGYSFVTT [ACTA1_Y200_E197D] | 0.677
EAEPYYRSLRD [NPHS1_Y1139] | 0.521
VLSIDYFFPPQ [AR_Y552_P549S_YF] | 0.572
VDLSKCITTIA [FAS_Y232_Y232C] | 0.431

Sequence | phosphorylation enrichment
TWSSSYRSDRL [CRYBB1_Y131] | 0.419
RPSRWYQFPVA [ANOS1_Y259_R262P] | 0.5
KLIETYFSKNY [PLP1_Y50] | 0.52
AGKEEYSAMRD [HRAS_Y64_Q61K] | 0.49
SVVVPYERPEV [TP53_Y220_P222R] | 0.502
SEEVNYATLTF [CLEC12B_Y7_T6N] | 1.66
ATDLAYYLVRK [ASL_Y375] | 0.885
TLKDVYDDGKF [RPS6KA3_Y483_YF] | 0.66
SKLTIYDARPS [MTM1_Y277] | 7.23
FARNSYVAGQF [G6PD_Y107_YF] | 0.501
GDEEDYFEIPG [EGFR_opt_F_2015] | 0.532
PSGPMYRGAVP [ASAH1_Y43_T42M] | 0.48
VQSASYLNDCL [MCM3AP_Y864_A867D] | 0.502
YQLPYYNTVPS [BMPR1A_Y458_M460T] | 1.46
PTTKTYFPQFD [HBA1_Y43_H46Q] | 0.611
VGTKWYMAPEV [ACVRL1_Y375_R374W] | 0.458

Target: Jak2 (UniProt O60674)
Sequence (O60674 whole entry, looked up): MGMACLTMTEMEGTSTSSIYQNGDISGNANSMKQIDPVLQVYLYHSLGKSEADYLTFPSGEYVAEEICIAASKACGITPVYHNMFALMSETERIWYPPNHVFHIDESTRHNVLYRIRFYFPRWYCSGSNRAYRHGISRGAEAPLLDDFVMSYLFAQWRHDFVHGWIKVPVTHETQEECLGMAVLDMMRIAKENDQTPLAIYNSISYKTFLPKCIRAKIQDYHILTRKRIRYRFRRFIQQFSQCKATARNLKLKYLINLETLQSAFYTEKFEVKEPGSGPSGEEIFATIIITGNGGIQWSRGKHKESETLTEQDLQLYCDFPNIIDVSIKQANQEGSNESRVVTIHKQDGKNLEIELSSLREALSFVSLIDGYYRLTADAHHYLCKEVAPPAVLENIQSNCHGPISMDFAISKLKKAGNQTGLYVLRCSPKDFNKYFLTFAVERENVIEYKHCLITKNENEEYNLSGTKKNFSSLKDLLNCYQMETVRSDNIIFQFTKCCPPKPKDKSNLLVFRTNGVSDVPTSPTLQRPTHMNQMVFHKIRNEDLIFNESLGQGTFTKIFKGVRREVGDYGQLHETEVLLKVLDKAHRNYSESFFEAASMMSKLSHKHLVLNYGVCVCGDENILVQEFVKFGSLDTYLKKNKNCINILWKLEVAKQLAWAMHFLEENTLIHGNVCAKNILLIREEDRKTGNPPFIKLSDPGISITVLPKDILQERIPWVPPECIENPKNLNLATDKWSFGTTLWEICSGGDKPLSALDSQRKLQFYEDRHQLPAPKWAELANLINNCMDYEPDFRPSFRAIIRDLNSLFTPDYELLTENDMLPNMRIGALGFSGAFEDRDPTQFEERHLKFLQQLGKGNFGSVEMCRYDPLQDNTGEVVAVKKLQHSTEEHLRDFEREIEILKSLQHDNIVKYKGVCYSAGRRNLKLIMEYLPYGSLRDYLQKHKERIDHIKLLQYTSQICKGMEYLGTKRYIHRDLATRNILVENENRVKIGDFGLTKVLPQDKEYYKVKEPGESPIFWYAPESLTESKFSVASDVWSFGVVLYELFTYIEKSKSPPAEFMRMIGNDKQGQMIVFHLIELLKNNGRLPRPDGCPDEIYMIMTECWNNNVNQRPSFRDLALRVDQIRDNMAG
Assay: as above

Sequence | phosphorylation enrichment
SPFAVYRFFTF [RPGRIP1_Y826_YF] | 1.08
CTTIHYYYMCN [TP53_Y234_N235Y] | 1.27
TFTVSYLPDMS [FLNC_Y1602_YF] | 0.975
SYSGEYGGGGG [ZG16_Y30] | 0.4
GVIRHSVVCST [BTK_Y334_Y334S] | 0.67
MENFIYESMRF [CYP19A1_Y361_YF] | 0.626
PNRILYGDFQQ [MYH7_Y715_R719Q] | 0.861
VFLGAYDCFLP [SLC22A5_Y486_R488C_YF] | 1.17
SIKDKYVTALF [KCNH2_Y611_YF] | 0.742
IRKKFYRAILE [CHD7_Y1218_Q1214R_YF] | 0.797
ANQDDYISFRH [IMP4_Y226] | 0.901
MGSYNYLGFAR [SPTLC2_Y178] | 2.89
FFWDGYMPRQF [GSS_Y270_R267W_YF] | 3.7
LTDRGYSFVTT [ACTA1_Y200_E197D] | 1.88
EAEPYYRSLRD [NPHS1_Y1139] | 0.785
VLSIDYFFPPQ [AR_Y552_P549S_YF] | 1.58
VDLSKCITTIA [FAS_Y232_Y232C] | 0.697

Sequence | phosphorylation enrichment
TWSSSYRSDRL [CRYBB1_Y131] | 0.621
RPSRWYQFPVA [ANOS1_Y259_R262P] | 0.914
KLIETYFSKNY [PLP1_Y50] | 0.719
AGKEEYSAMRD [HRAS_Y64_Q61K] | 0.644
SVVVPYERPEV [TP53_Y220_P222R] | 0.846
SEEVNYATLTF [CLEC12B_Y7_T6N] | 1.12
ATDLAYYLVRK [ASL_Y375] | 3.03
TLKDVYDDGKF [RPS6KA3_Y483_YF] | 0.655
SKLTIYDARPS [MTM1_Y277] | 0.655
FARNSYVAGQF [G6PD_Y107_YF] | 0.522
GDEEDYFEIPG [EGFR_opt_F_2015] | 1.21
PSGPMYRGAVP [ASAH1_Y43_T42M] | 0.67
VQSASYLNDCL [MCM3AP_Y864_A867D] | 0.798
YQLPYYNTVPS [BMPR1A_Y458_M460T] | 4.98
PTTKTYFPQFD [HBA1_Y43_H46Q] | 0.737
VGTKWYMAPEV [ACVRL1_Y375_R374W] | 0.963

Target: MERTK (UniProt Q12866)
Sequence (Q12866 whole entry, looked up): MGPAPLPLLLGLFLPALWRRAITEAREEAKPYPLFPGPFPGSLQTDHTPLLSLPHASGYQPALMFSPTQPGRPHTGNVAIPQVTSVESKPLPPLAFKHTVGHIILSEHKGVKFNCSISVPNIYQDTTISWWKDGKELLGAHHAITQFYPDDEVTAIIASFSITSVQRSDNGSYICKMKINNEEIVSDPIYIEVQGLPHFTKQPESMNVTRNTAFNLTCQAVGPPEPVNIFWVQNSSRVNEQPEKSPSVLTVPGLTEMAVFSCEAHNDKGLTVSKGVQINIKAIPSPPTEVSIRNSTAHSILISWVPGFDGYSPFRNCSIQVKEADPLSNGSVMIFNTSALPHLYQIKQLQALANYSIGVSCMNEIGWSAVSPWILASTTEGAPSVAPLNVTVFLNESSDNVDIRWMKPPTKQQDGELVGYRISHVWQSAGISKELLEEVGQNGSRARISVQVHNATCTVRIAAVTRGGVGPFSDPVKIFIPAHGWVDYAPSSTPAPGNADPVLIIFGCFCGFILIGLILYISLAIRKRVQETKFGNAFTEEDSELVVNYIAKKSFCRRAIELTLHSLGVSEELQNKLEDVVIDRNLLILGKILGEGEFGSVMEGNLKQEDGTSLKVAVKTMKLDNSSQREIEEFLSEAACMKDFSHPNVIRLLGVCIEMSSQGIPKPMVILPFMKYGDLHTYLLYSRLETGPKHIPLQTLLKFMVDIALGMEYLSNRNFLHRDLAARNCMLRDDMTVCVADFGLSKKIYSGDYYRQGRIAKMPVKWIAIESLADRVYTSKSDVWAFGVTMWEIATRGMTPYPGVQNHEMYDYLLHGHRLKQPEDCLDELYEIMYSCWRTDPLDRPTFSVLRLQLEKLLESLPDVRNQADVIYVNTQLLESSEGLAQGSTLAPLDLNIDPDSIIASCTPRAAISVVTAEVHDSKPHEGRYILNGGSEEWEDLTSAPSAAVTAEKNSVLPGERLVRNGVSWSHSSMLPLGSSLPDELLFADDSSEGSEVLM
Assay: as above

Sequence | phosphorylation enrichment
SPFAVYRFFTF [RPGRIP1_Y826_YF] | 0.45
CTTIHYYYMCN [TP53_Y234_N235Y] | 0.767
TFTVSYLPDMS [FLNC_Y1602_YF] | 0.442
SYSGEYGGGGG [ZG16_Y30] | 0.439
GVIRHSVVCST [BTK_Y334_Y334S] | 0.446
MENFIYESMRF [CYP19A1_Y361_YF] | 3.74
PNRILYGDFQQ [MYH7_Y715_R719Q] | 0.408
VFLGAYDCFLP [SLC22A5_Y486_R488C_YF] | 5.67
SIKDKYVTALF [KCNH2_Y611_YF] | 0.471
IRKKFYRAILE [CHD7_Y1218_Q1214R_YF] | 0.618
ANQDDYISFRH [IMP4_Y226] | 0.482
MGSYNYLGFAR [SPTLC2_Y178] | 6.56
FFWDGYMPRQF [GSS_Y270_R267W_YF] | 0.398
LTDRGYSFVTT [ACTA1_Y200_E197D] | 0.846
EAEPYYRSLRD [NPHS1_Y1139] | 0.467
VLSIDYFFPPQ [AR_Y552_P549S_YF] | 0.719
VDLSKCITTIA [FAS_Y232_Y232C] | 0.364

Sequence | phosphorylation enrichment
TWSSSYRSDRL [CRYBB1_Y131] | 0.448
RPSRWYQFPVA [ANOS1_Y259_R262P] | 7.23
KLIETYFSKNY [PLP1_Y50] | 0.374
AGKEEYSAMRD [HRAS_Y64_Q61K] | 0.44
SVVVPYERPEV [TP53_Y220_P222R] | 0.401
SEEVNYATLTF [CLEC12B_Y7_T6N] | 0.905
ATDLAYYLVRK [ASL_Y375] | 1.19
TLKDVYDDGKF [RPS6KA3_Y483_YF] | 0.515
SKLTIYDARPS [MTM1_Y277] | 0.825
FARNSYVAGQF [G6PD_Y107_YF] | 0.427
GDEEDYFEIPG [EGFR_opt_F_2015] | 0.532
PSGPMYRGAVP [ASAH1_Y43_T42M] | 0.483
VQSASYLNDCL [MCM3AP_Y864_A867D] | 0.447
YQLPYYNTVPS [BMPR1A_Y458_M460T] | 5.81
PTTKTYFPQFD [HBA1_Y43_H46Q] | 0.428
VGTKWYMAPEV [ACVRL1_Y375_R374W] | 2.9

System: c-Abl (mouse)
Assay: as above

Sequence | phosphorylation enrichment
SPFAVYRFFTF [RPGRIP1_Y826_YF] | 0.961
CTTIHYYYMCN [TP53_Y234_N235Y] | 0.644
TFTVSYLPDMS [FLNC_Y1602_YF] | 0.835
SYSGEYGGGGG [ZG16_Y30] | 0.433
GVIRHSVVCST [BTK_Y334_Y334S] | 0.607
MENFIYESMRF [CYP19A1_Y361_YF] | 2.71
PNRILYGDFQQ [MYH7_Y715_R719Q] | 0.549
VFLGAYDCFLP [SLC22A5_Y486_R488C_YF] | 0.953
SIKDKYVTALF [KCNH2_Y611_YF] | 0.668
IRKKFYRAILE [CHD7_Y1218_Q1214R_YF] | 0.568
ANQDDYISFRH [IMP4_Y226] | 0.557
MGSYNYLGFAR [SPTLC2_Y178] | 0.956
FFWDGYMPRQF [GSS_Y270_R267W_YF] | 0.734
LTDRGYSFVTT [ACTA1_Y200_E197D] | 1.17
EAEPYYRSLRD [NPHS1_Y1139] | 0.709
VLSIDYFFPPQ [AR_Y552_P549S_YF] | 0.784
VDLSKCITTIA [FAS_Y232_Y232C] | 0.681

Sequence | phosphorylation enrichment
TWSSSYRSDRL [CRYBB1_Y131] | 0.593
RPSRWYQFPVA [ANOS1_Y259_R262P] | 0.657
KLIETYFSKNY [PLP1_Y50] | 0.574
AGKEEYSAMRD [HRAS_Y64_Q61K] | 0.629
SVVVPYERPEV [TP53_Y220_P222R] | 0.731
SEEVNYATLTF [CLEC12B_Y7_T6N] | 1.38
ATDLAYYLVRK [ASL_Y375] | 1.04
TLKDVYDDGKF [RPS6KA3_Y483_YF] | 0.549
SKLTIYDARPS [MTM1_Y277] | 0.593
FARNSYVAGQF [G6PD_Y107_YF] | 0.442
GDEEDYFEIPG [EGFR_opt_F_2015] | 0.78
PSGPMYRGAVP [ASAH1_Y43_T42M] | 0.68
VQSASYLNDCL [MCM3AP_Y864_A867D] | 0.693
YQLPYYNTVPS [BMPR1A_Y458_M460T] | 2.34
PTTKTYFPQFD [HBA1_Y43_H46Q] | 0.597
VGTKWYMAPEV [ACVRL1_Y375_R374W] | 0.726
